The values below come from patent US20250026841A1.

In the test the target is p95HER2 expressed on cells (p95HER2-HEK293, p95HER2-expressing NCI-H292) (human) (UniProt P04626). The test is described as follows: flow cytometry on p95HER2-expressing NCI-H292 cells, ug/mL is the unit of the x axis. In general terms: Flow cytometry measures light scatter and fluorescence of single cells or particles in a stream.

B1: anti-p95HER2 antibody clone R4-15 (antibody, human IgG1, V domains shown)
VH: QITLKESGPTLVKPTQTLTLTCTFSGFSLSSGGVGVGWIRQPPGKALEWLALIYWDDDKRYSPSLKSRLTITKDTSKKQVVLTMTNMDPVDTATYYCAHLDYPENYFDQWGQGTLVTVSS
VL: DIQMTQSPSSLSASVGDRVTFTCRASQSISTYLNWYQQKPGKAPKLLIYAASTLQSGVPSRFSGSGSGTDFTLAISSLQPEDFATYFCQQSYSFPTFGQGTRLEIKR
Broadly, the EC50 is the concentration that produces a half-maximal response. Read a high EC50 as a less potent agent. For the molecule B1, the EC50 amounted to 0.0659 µg/mL.

B2: anti-p95HER2 antibody clone R4-5 (antibody, human IgG1, kappa, V domains shown)
VH: QITLKESGPALVKPTQTLTLTCTFSGFSLSTSGVGVGWIRQPPGKALEWLALIYWDDDKRYSPSLKSRLTITKDTSKNQVVLTMTNMDPVDTATYYCAHSRLPYNSHGYWGQGTTVTVSS
VL: DIQMTQSPSSLSASVGDRVTITCQASQAIGNYLSWYQQKPGRAPKLLIYAASTLHSGVPSRFSGSGSGTDFTLTITSLQPDDFATYYCQQSYSVPVTFGLGTKLEIKR
Turning to B2, the EC50 is 0.399 µg/mL.
